The target in the assay is GST-XNRL (Xenopus laevis). The assay can be described thus: pull-down; Glutathione-Sepharose-bound GST-XNRL (or GST alone) incubated with affinity purified MYC fusion proteins in binding buffer (0.1% Triton X-100, 50 mM HEPES pH 7.5, 150 mM NaCl, 1% glycerol, 1.5 mM MgCl2, 5 mM EGTA) overnight at 4°C, washed three times; anti-MYC Western blot, bands quantified by Image J (retained/input, normalised to MYC-XOTX2); two independent experiments.

On to MYC-XOTX5b (natural protein), for which the fold binding relative to MYC-XOTX2 (retained/input ratio) was found to be 2.4 fold.

(Values after paper PMC1929070.)
